Measurements from publication doi:10.1101/2021.01.08.425994 (bioRxiv, 2021).

Molecular target: T1, His-tagged mouse CRY2 D325H PHR domain (residues 1-512) (mouse, UniProt Q9R194 1-512, D325H)
T1 sequence (looked up): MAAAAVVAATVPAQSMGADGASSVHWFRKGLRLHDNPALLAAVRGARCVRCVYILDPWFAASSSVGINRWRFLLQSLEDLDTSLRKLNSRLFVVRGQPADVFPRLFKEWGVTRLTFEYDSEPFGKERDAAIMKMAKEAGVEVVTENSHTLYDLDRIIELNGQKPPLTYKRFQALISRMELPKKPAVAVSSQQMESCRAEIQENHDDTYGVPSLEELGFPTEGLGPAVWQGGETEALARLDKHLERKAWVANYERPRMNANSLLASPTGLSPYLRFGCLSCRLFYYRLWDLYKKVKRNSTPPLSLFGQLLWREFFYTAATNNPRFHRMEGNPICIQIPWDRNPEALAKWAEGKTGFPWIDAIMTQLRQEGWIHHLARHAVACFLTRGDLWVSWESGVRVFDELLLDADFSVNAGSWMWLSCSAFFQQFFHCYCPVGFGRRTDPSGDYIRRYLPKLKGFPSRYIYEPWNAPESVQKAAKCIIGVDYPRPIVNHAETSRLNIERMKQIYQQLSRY
Test: BLI

B1: CLOCK:BMAL1 PAS domain core (PAS-AB domain heterodimer), biotinylated (complex)
chain 1: ASEIRQDWKPTFLSNEEFTQLMLEALDGFFLAIMTDGSIIYVSESVTSLLEHLPSDLVDQSIFNFIPEGEHSEVYKILSTHLLESDSLTPEYLKSKNQLEFCCHMLRGTIDPKEPSTYEYVRFIGNFKSLTSVSTSTHNGFEGTIQRTHRPSYEDRVCFVATVRLATPQFIKEMCTVEEPNEEFTSRHSLEWKFLFLDHRAPPIIGYLPFEVLGTSGYDYYHVDDLENLAKCHEHLMQYGKGKSCYYRFLTKGQQWIWLQTHYYITYHQWNSRPEFIVCTHTVVSYAEVRAERRRELGIEESL
chain 2: not shown
Kd: 1800 nM
